Results as given in patent publication US10479836B2, “Method for treating pulmonary hypertension with interleukin-5 receptor antibody” (University of Toyama, priority 2015, dated 2019).

T1: mouse FcγRI (Mus musculus, UniProt P26151)
T1 construct: purchased R&D Systems, Inc
T1 sequence (P26151 25-404): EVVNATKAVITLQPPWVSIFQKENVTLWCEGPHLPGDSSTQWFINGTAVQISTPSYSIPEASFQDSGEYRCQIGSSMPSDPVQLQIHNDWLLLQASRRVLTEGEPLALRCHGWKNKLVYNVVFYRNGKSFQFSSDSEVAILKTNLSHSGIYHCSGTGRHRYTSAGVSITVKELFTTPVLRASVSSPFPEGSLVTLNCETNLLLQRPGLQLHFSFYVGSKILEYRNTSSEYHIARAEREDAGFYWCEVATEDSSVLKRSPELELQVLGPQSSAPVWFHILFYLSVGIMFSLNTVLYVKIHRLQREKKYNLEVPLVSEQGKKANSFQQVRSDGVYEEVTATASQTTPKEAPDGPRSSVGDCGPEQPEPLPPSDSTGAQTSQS

T2: mouse FcγRIIb (Mus musculus, UniProt P08101)
T2 construct: purchased R&D Systems, Inc
T2 sequence (P08101 30-330): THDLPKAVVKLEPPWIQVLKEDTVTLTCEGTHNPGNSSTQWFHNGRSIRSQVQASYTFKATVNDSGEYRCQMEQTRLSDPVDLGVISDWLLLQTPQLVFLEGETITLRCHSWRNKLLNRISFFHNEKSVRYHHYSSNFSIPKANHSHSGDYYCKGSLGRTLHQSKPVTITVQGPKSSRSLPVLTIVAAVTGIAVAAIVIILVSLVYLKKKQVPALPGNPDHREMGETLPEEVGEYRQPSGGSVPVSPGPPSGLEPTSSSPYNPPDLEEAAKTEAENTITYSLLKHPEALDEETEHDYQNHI

T3: mouse FcγRIII (Mus musculus, UniProt P08508)
T3 construct: purchased R&D Systems, Inc
T3 sequence (P08508 31-261): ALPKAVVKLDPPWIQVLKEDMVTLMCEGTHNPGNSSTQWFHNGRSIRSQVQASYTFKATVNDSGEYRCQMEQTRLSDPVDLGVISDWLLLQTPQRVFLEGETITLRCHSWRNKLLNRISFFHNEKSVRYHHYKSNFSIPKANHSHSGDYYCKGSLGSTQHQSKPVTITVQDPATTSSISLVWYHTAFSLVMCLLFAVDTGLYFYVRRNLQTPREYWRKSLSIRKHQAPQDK

T4: mouse FcγRIV (Mus musculus, UniProt A0A0B4J1G0)
T4 construct: purchased R&D Systems, Inc
T4 sequence (A0A0B4J1G0 21-249): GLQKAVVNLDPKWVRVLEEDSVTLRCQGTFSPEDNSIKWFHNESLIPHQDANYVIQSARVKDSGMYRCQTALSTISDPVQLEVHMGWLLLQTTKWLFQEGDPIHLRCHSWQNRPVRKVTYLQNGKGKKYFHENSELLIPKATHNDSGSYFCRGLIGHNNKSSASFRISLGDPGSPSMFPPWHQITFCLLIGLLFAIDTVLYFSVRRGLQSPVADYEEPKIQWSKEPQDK

B1: H7-1: core fucose-deficient rat/human chimeric antibody of anti-IL-5R rat monoclonal antibody H7, human IgG1 constant region (antibody, V domains shown)
VH: EVQLQQSGAELGKPGTSVKLSCKVSGYNIKNTYIHWVNQRPGKGLEWIGRIDPANGNPIYAEKFKNKATLTADTSSNTAYMQLSQLKSDDTAIYFCAMHRGHSMGPGPYVMDAWGQGASVTVSS
VL: DIQMTQSPASLSASLGETVTIECRTSEDIYNGLAWYQQKPGKSPQLLIYNANSLHTGVPSRFSGSGSGTQYSLKINSLQSEDVASYCCQQYSNYPFTFGSGTKLEIK
B2: H7-3: N-linked sugar chain-deficient H7 chimeric antibody, human IgG1 (N297A), lacking ADCC activity (antibody, V domains shown)
VH: B1 VH
VL: B1 VL
B3: H7 ratIgG2a: parent anti-IL-5R rat monoclonal antibody H7, rat IgG2a type (Hitoshi et al.) (antibody, V domains shown)
VH: B1 VH
VL: B1 VL

Columns and labels:
[1] = tested on: rIL-33-induced pulmonary vascular wall thickening; test: rIL-33-induced pulmonary arterial wall thickening, Heath-Edwards grading of lung tissue; format: in vivo, mouse; settings: IL-5+/+ mice given rIL-33; intrabronchial administration on days 7 and 14; compared with PBS group; FIG. 8
Protocol: Therefore, the degree of vascular wall thickening in IL-5^+/+ mice and IL-5^V/V mice was quantitatively graded on the basis of the Heath-Edwards grading system. On days 0, 7, and 14, 400 ng of rIL-33 was administered to each mouse. On day 21, lung tissues were resected and subjected to pathological observation to conduct tissue classification on the basis of the Heath-Edwards grading system.
In this grading system, evaluation was carried out according to grade 1: medial thickening, grade 2: intimal thickening, grade 3: advanced intimal thickening and medial thickening, and grade 4; plexiform lesion in addition to advanced intimal thickening and medial thickening.
In an experimental system similar to that of Example 3, in order to confirm the inhibitory effect of an anti-IL-5 neutralizing antibody on intimal thickening and medial thickening, 100 μg of an anti-IL-5 rat monoclonal antibody (NC17) (Hitoshi et al., Int. Immunol., 1991; 3; 135-139) or a rat IgG control antibody (manufactured by Sigma-Aldrich Co., LLC) was intraperitoneally administered to each IL-5^+/+ mouse for 3 consecutive days (a total of 3 times) from two days before rIL-33 administration day. Then, on day 21, lung tissues were resected and subjected to pathological observation to conduct tissue classification on the basis of the Heath-Edwards grading system. […]

[2] = tested on: mouse IL-5Rα-expressing cell Y16; test: Antigen binding activity of chimeric antibodies on Y16 cells by FCM; format: cell-based; settings: 0.6-10000 ng/mL antibody, 4° C. 60 min; FIG. 12
Protocol: The chimeric antibodies prepared in Example 8 were evaluated for their antigen binding activity using a mouse-derived cell line Y16 expressing IL-5R. The Y16 cells were washed with SM (staining medium containing 2% FCS, 0.05% NaN3, and 1 mM EDTA in PBS). Then, Mouse BD Fc Block (manufactured by Becton, Dickinson and Company) was added thereto at a concentration of 5 μg/mL, and the mixture was left standing at 4° C. for 30 min. The cells were inoculated at a cell number of 1×10^5 cells/well to a 96-well U-bottom plate, and each chimeric antibody adjusted to a final concentration of 10000, 2500, 625, 156, 39, 10, 2.4, or 0.6 ng/mL was added thereto, followed by reaction at 4° C. for 60 min. The rat/human chimeric control antibodies used were rtDNP-1 hIgG1 (DF) antibody (KM8808) and rtDNP-1 hIgG1 (N297A) antibody (KM6161). The nucleotide sequences and amino acid sequences of the variable regions of each isotype control antibody are shown in SEQ ID NOs: 29 to 34. After washing of the cells with SM, Goat F(ab′)2 Anti-Human IgG PE (γ chain specific) (manufactured by Southern Biotech) diluted 500-fold with SM was added thereto, followed by reaction at 4° C. for 60 min. After washing of the cells with SM, the cells were resuspended in 50 μL of SM. Fluorescence intensity was measured by FCM (flow cytometer FACS Canto II (manufactured by Becton, Dickinson and Company)). The data was analyzed using FlowJo 7.65 (manufactured by Tomy Digital Biology Co., Ltd.) to calculate a Geomean value at each concentration.

mouse FcγRI = target: T1, mouse FcγRI; test: Biacore steady state affinity for mouse FcγRI; format: binding; settings: Biacore T-200, Steady State Affinity mode
Protocol: (§1) The various H7 chimeric antibodies prepared in Example 8 and the parent antibody H7 rat IgG2a-type antibody were evaluated for their affinity for mouse FcγR using Biacore T-200 (manufactured by GE Healthcare Japan Corp.). An anti-tetra His mouse antibody (manufactured by Qiagen N.V.) was immobilized with 8000 RU as a guideline onto CM5 sensor chip using an amine coupling kit (all manufactured by GE Healthcare Japan Corp.). The coupling buffer used was 10 mM sodium acetate (pH 4.5). His tag-fused mouse FcγRI, IIb, III, and IV proteins (all manufactured by R&D Systems, Inc.) each dissolved at 2 μg/mL in HBS-EP(+) were captured as ligands at 2 μL/min for 30 sec. Then, each antibody serially diluted into concentrations of […] was added thereto as an analyte by the multicycle method. The flow rate was 5 μL/min, and the contact time and the dissociation time were both set to a condition of 240 sec. The analysis was carried out using Biacore T200 Evaluation software on the Steady State Affinity mode. A rise in binding activity against FcγRI and FcγRIV involved in in vivo mouse effector activity was observed by the alteration of the H7 constant region from rat IgG2a type to hIgG1 type.

mouse FcγRIIb = target: T2, mouse FcγRIIb; test: Biacore steady state affinity for mouse FcγRIIb; format: binding; settings: Biacore T-200, Steady State Affinity mode
Protocol: as §1

mouse FcγRIII = target: T3, mouse FcγRIII; test: Biacore steady state affinity for mouse FcγRIII; format: binding; settings: Biacore T-200, Steady State Affinity mode
Protocol: as §1

mouse FcγRIV = target: T4, mouse FcγRIV; test: Biacore steady state affinity for mouse FcγRIV; format: binding; settings: Biacore T-200, Steady State Affinity mode
Protocol: as §1

Y16 cells = test: ADCC activity against Y16 cells with human PBMC effector cells (LDH release); format: cell-based, mouse; settings: 4 hrs, 0.0001-1000 ng/mL (control antibodies 1000 ng/mL), FIG. 13
Protocol: The H7 recombinant chimeric antibodies prepared in Example 8 were evaluated for their ADCC activity against Y16 cells using frozen human peripheral blood mononuclear cells (PBMCs) (manufactured by AllCells) as effector cells. The frozen human PBMCs were shake-cultured (37° C., 5% CO2, overnight) in RPMI1640 medium containing 5% FBS. The Y16 cells (target cells) and the human PBMCs (effector cells) were washed with ADCC assay medium (RPIM1640 containing 5% dialyzed FBS) and adjusted to cell densities of 2×10^5 cells/mL and 3×10^6 cells/mL, respectively. The cells were washed twice with a medium and then suspended into cell densities of 4×10^5 cells/mL. Each chimeric antibody adjusted to a final concentration of 0.0001, 0.001, 0.01, 0.1, 1, 10, 100, or 1000 ng/mL, the target cells (2×10^4 cells/well), and the effector cells (5×10^5 cells/well) were added in this order at 50 μL/well to a 96-well U-bottom plate. The control antibodies used were the rtDNP-1 hIgG1 (DF) antibody (KM8808) and the rtDNP-1 hIgG1 (N297A) antibody (KM6161) of Example 10 adjusted to a final concentration of 1000 ng/mL. The plate was centrifuged (500 rpm, 5 min) and then left standing in an incubator (37° C., 5% CO2, 4 hrs). The plate was centrifuged (1500 rpm, 5 min) to recover a supernatant at 50 μL/well into a 96-well Flat-bottom plate (manufactured by Sumitomo Bakelite Co., Ltd.). Lactate dehydrogenase (LDH) activity in the supernatant was detected using CytoTox 96 Non-Radioactive Cytotoxicity Assay (manufactured by Promega Corp.). Absorbance at 490 nm was measured using a plate reader SPECTRA MAX 340 PC384 (manufactured by Molecular Devices, LLC). The ADCC activity (%) was calculated according to the following equation using background-corrected measurement values. Cytotoxicity=[[Absorbance of the sample]−[Absorbance derived from spontaneous release from the target cells and the effector cells]]/[[Absorbance derived from total release from the target cells]−[Absorbance derived from spontaneous release from the target cells]]

Molecule	pulmonary vascular wall thickening (histological scores, Heath-Edwards grading) [1]	antigen binding activity (fluorescence intensity, Geomean) on Y16 cells [2]	Kd (mouse FcγRI)	Affinity KD for mouse FcγRIIb (mouse FcγRIIb)	Affinity KD for mouse FcγRIII (mouse FcγRIII)	Kd (mouse FcγRIV)	ADCC activity against Y16 cells (Y16 cells)	Affinity KD for mouse FcγRI (mouse FcγRI)	Affinity KD for mouse FcγRIV (mouse FcγRIV)
CC#CCC(C)[C@H](O)/C=C/[C@@H]1[C@H]2C/C(=C/CCCC(=O)O)C[C@H]2C[C@H]1O (some centres unmarked) [iloprost]	evident decrease in pulmonary vascular wall thickening was observed	–	–	–	–	–	–	–	–
B1	–	confirmed to react equivalently	137 nM	no binding	no binding	89.5 nM	exhibited antibody concentration-dependent ADCC activity	–	–
B2	–	confirmed to react equivalently	–	no binding	no binding	–	none	very weak	no binding
B3	–	–	–	no binding	no binding	–	–	very weak	very weak
